Assays:
[1] = molecular target: T1, recombinant human RON SEMA and PSI domains (human, UniProt Q04912 25-571); experiment: ECL competition, MSP binding to coated hRON SEMA+PSI; competitor MSP; average
T1 construct: domain: SEMA+PSI; Commercial protein (R&D Systems); also called rhRON SEMA+PSI; hRON SEMA+PSI
Description: The biochemical neutralization assay measures inhibition of MSP binding to hRON by antibodies in hybridoma supernatants, using electrochemiluminescence (ECL). MA2400 96-well high binding plates (Meso Scale Discovery) were coated with 25 μl of 0.42 μg/mL hRON SEMA+PSI (an N-terminal portion of the ECD of hRON; R&D Systems) in PBS for one hour at room temperature with agitation. The plates were washed four times with PBS+0.1% Tween-20 (PBST), and blocked with 150 μl of charcoal-stripped fetal bovine serum (FBS) (Gibco). The hybridoma supernatant were added and incubated for 45 minutes at room temperature. After incubation, 5 μl of MSP (3 μg/mL) in charcoal stripped FBS was added to each well, and incubated for 45 minutes. The plate was washed four times with PBST, and 25 μl of 1 μg/mL biotinylated anti-MSP antibody (R&D Systems) was added to the plates for one hour at room temperature with agitation. The plates were washed four times with PBST, and incubated with 25 μl of 1 μg/mL ST-streptavidin (Meso Scale Discovery) for one hour at room temperature with agitation. The plates were washed four times with PBST, and 150 μl read buffer (Meso Scale Discovery) was added to each well before the plates were analyzed on a Sector Imager 2400 (Meso Scale Discovery) instrument. Antibodies 07F01, 18H09 and 29B06 each blocked MSP binding to hRON SEMA+PSI in this neutralization assay.
Antibodies 07F01, 12B11, 17F06, 18H09, and 29B06 were tested for inhibition of MSP binding to hRON SEMA+PSI, as measured by electrochemiluminescence (ECL) assay as described in Example 3. The antibodies (concentration range: 0.006-10 μg/mL) were incubated for 45 minutes at room temperature.

[2] = molecular target: T2, human wild-type RON (cell surface) (human, UniProt Q04912 25-1400); experiment: FACS titration on PC3 cells, 4 C
T2 construct: whole, on cells; also called Human RON; wt RON
Description: Binding to cell surface human wild-type RON and the delta 160 RON variant by antibodies 07F01, Sh07F01-62, 29B06, and Sh29B06-78 was measured at 4° C., using Fluorescence Activated Cell Sorting (FACS). PC3 cells expressing the human wild-type RON, and HT29 cells expressing the delta 160 variant, were harvested using cell dissociation buffer (Invitrogen), washed twice with FACS buffer (PBS with 0.5% BSA), and treated 10 minutes with Cyto Q Antibody diluent and FC receptor block (Innovex Biosciences, Richmond, Calif.). Purified antibodies were diluted in FACS buffer over a concentration range from 0.01 nM to 25 nM. Cells were incubated with 100 μl of antibody for one hour, washed with FACS buffer three times, and incubated for 45 minutes with goat anti-mouse PE-conjugated antibody (Jackson ImmunoResearch Laboratories, West Grove, Pa.) or donkey anti-human PE-conjugated antibody (Jackson ImmunoResearch Laboratories, West Grove, Pa.). Cells were washed three times with FACS buffer, resuspended in 300 μl of FACS buffer, and analyzed using a Beckman Coulter Cytomics FC 500 FACS instrument. All four antibodies were compared in the same experiment.

[3] = molecular target: T3, recombinant human RON-ECD/mFc fusion protein (human, UniProt Q04912 25-957); experiment: SPR, Ab captured on anti-mouse IgG, 25 C, AVG
T3 construct: extracellular domain; also called rhRON ECD/mFc; rhRon ECD/mFc; not shown: THXmFC: Thrombin/His tag/Factor Xa-AJ mouse IgG-Fc
Description: (§1) The binding affinities and kinetics of binding of antibodies 07F01, 29B06, 17F06, 18H09, and 12B11 to recombinant human RON-ECD/mFc fusion protein (rhRON ECD/mFc) and recombinant human RON SEMA and PSI domains (rhRON SEMA+PSI) (R&D Systems, Inc., Minneapolis, Minn.) were measured by surface plasmon resonance, using a Biacore T100 instrument (GE Healthcare, Piscataway, N.J.).
(§2) Rabbit anti-mouse IgGs (GE Healthcare) were immobilized on carboxymethylated dextran CM4 sensor chips (GE Healthcare) by amine coupling, according to a standard protocol. Analyses were performed at 25° C. and 37° C., using PBS containing 0.05% surfactant P20 as running buffer. The antibodies were captured in individual flow cells at a flow rate of 10 μl/min. Injection time was varied for each antibody to yield an Rmax between 30 and 60 RU. 250 μg/mL mouse Fc were injected at 30 μl/min for 120 seconds to block non-specific binding of antibodies to Fc portion of the protein when needed. Buffer, rhRon ECD/mFc or rhRON SEMA+PSI diluted in running buffer was injected sequentially over a reference surface (no antibody captured) and the active surface (antibody to be tested) for 300 seconds at 60 μl/minute. The dissociation phase was monitored for up to 3600 seconds. The surface was then regenerated with two 60-second injections of 10 mM Glycine-HCl, pH 1.7, at a flow rate of 60 μl/min. The rhRON ECD/mFc or rhRON SEMA+PSI concentration range tested was 0.625 nM to 20 nM.
(§3) Kinetic parameters were determined using the kinetic function of the BIAevaluation software (GE Healthcare) with double reference subtraction. Kinetic parameters for each antibody, kₐ (association rate constant), kd (dissociation rate constant) and KD (equilibrium dissociation constant) were determined.

[4] = molecular target: T2, human wild-type RON (cell surface); experiment: cell-based or functional assay
[5] = molecular target: T3, recombinant human RON-ECD/mFc fusion …; experiment: SPR, Ab captured on anti-mouse IgG, 37 C, AVG
Description: as §1, §2, §3

Maximum Neutralization (%) [1] | Kd [2] | Kd [3] | koff [3] | kon [3] | Mean IC50 (nM), inhibition of MSP-dependent ERK phosphorylation, T47D cells [4] | Kd [5] | koff [5] | kon [5] | Binder
87.6% | 0.136 nM | 0.65 nM | 0.00013 s⁻¹ | 200000 M⁻¹ s⁻¹ | 0.44 nM | 0.28 nM | 0.0007 s⁻¹ | 2.3e+06 M⁻¹ s⁻¹ | 29B06 (antibody, mouse IgG1, kappa, Murine hybridoma monoclonal, IgG1/kappa; also called mu29B06; antibody 29B06) heavy: EVQLQESGPSLVKPSQTLSLTCSVTGDSITSGYWNWIRKFPGNKLEYMGYISYSGKTYYNPSLKSRISITRDTSKNHYYLQLISVTAEDTATYYCARSKYDYAMDYWGQGTSVTVSSAKTTPPSVYPLAPGSAAQTNSMVTLGCLVKGYFPEPVTVTWNSGSLSSGVHTFPAVLQSDLYTLSSSVTVPSSTWPSETVTCNVAHPASSTKVDKKIVPRDCGCKPCICTVPEVSSVFIFPPKPKDVLTITLTPKVTCVVVDISKDDPEVQFSWFVDDVEVHTAQTQPREEQFNSTFRSVSELPIMHQDWLNGKEFKCRVNSAAFPAPIEKTISKTKGRPKAPQVYTIPPPKEQMAKDKVSLTCMITDFFPEDITVEWQWNGQPAENYKNTQPIMDTDGSYFVYSKLNVQKSNWEAGNTFTCSVLHEGLHNHHTEKSLSHSPGK light: not shown
88.3% | 0.053 nM | 0.23 nM | 9.3e-05 s⁻¹ | 400000 M⁻¹ s⁻¹ | 0.07 nM | 0.21 nM | 0.00035 s⁻¹ | 2.1e+06 M⁻¹ s⁻¹ | 07F01 (antibody, mouse IgG1, kappa, V domains shown, Murine hybridoma monoclonal, IgG1/kappa; also called mu07F01; antibody 07F01) VH: EVKLLESGGGLVQPGGSLKLSCAASGFDFSRHWMSWVRLAPGKGLEWIAEINPDSRTINYTPSLKEKFIISRDNAKNSLFLQMNRVRSEDTALYYCARRVRIHYYGAMDCWGQGTSVTVSS VL: DIVLTQSQKIVSTSVGARVSVTCKASQNVGSSLVWYQQKPGQSPKTLIYSASFRYSGVPDRFTGSGSGTDFTLTISNVQSEDLADYFCQQYNNYPLTFGAGTKLELKR

From patent publication US20120027773A1 (AVEO PHARMACEUTICALS, published 2012)
